The assay concerns the target LgBiT-PP1α, P62136. Description: split-luciferase kinetic trace, competition with untagged SDS22. The following applies: chain shown with the change; 10 μM competitor added at t = 22 min; value read at the last time point (about 45 min); buffer control est. 160; parent: est. 83; read off a plot.

Chain of LgBiT-PP1α, P62136 (P62136 whole entry): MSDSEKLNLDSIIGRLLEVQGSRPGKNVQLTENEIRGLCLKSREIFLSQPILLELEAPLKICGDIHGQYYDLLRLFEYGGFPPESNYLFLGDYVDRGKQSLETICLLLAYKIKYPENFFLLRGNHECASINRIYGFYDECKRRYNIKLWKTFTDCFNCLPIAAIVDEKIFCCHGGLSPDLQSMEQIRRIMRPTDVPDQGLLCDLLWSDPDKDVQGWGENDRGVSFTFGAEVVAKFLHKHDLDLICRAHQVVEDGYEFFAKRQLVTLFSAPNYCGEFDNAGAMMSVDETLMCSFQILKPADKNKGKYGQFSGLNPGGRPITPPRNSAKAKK

B1: SDS22 (tag-free, purified), Q15435 E192A (protein)
chain: MAAERGAGQQQSQEMMEVDRRVESEESGDEEGKKHSSGIVADLSEQSLKDGEERGEEDPEEEHELPVDMETINLDRDAEDVDLNHYRIGKIEGFEVLKKVKTLCLRQNLIKCIENLEELQSLRELDLYDNQIKKIENLEALTELEILDISFNLLRNIEGVDKLTRLKKLFLVNNKISKIENLSNLHQLQMLALGSNRIRAIENIDTLTNLESLFLGKNKITKLQNLDALTNLTVLSMQSNRLTKIEGLQNLVNLRELYLSHNGIEVIEGLENNNKLTMLDIASNRIKKIENISHLTELQEFWMNDNLLESWSDLDELKGARSLETVYLERNPLQKDPQYRRKVMLALPSVRQIDATFVRF
With B1, the response (% of value at 22min) worked out at 150.

(Values after PMC11199634.)
